Source: PMC8373067, “The RGG domain in the C-terminus of the DEAD box helicases Dbp2 and Ded1 is necessary for G-quadruplex destabilization”

Columns and labels:
[1] = target: T1, Ded1 WT (Schizosaccharomyces pombe, UniProt O13370 1-636); test: EMSA; up to 10 nM protein; EMSA: 0.4 nM 32P-oligo (0.2 nM in Fig S4), 50 mM Tris (pH not stated), 50 mM KCl (DNA) or NaCl (RNA), 2 mM MgCl2, 2 mM DTT, 0.25 mg/ml BSA, 10 min at 30 C; settings: protein: recombinant; tags: C-terminal poly-His; label: 5'-32P; single strand
T1 sequence (O13370 whole entry): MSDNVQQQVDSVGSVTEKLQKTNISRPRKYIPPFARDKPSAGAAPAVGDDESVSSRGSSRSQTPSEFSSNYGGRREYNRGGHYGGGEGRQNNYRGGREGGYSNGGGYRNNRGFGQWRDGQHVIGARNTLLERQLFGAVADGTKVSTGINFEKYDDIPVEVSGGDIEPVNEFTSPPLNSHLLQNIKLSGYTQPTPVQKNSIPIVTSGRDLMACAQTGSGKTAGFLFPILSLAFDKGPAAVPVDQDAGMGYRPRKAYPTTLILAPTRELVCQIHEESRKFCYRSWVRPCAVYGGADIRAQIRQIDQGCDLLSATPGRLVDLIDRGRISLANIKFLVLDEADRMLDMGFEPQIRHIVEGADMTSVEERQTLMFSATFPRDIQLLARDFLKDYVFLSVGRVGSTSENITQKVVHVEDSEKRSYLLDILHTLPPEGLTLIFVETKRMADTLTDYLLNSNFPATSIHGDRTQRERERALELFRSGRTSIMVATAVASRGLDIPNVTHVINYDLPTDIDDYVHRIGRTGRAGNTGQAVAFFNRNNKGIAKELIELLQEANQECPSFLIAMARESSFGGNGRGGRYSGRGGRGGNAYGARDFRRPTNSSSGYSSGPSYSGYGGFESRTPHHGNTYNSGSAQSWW

[2] = target: T2, Oga1 WT (Schizosaccharomyces pombe, UniProt O42914 1-284); test: as above; settings: protein: recombinant; tags: C-terminal poly-His; label: 5'-32P; single strand
T2 sequence: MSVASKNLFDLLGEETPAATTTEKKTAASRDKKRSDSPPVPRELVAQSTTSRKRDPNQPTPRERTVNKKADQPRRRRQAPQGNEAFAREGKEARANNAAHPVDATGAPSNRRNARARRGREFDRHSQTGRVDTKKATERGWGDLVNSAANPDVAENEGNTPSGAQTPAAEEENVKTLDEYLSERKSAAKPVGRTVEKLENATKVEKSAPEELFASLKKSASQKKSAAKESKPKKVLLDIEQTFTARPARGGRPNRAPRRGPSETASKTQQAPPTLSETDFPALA

[3] = target: T3, Dbp2 WT (Schizosaccharomyces pombe, UniProt P24782 1-550); test: as above; settings: protein: recombinant; tags: C-terminal poly-His; label: 5'-32P; single strand
T3 sequence (P24782 whole entry): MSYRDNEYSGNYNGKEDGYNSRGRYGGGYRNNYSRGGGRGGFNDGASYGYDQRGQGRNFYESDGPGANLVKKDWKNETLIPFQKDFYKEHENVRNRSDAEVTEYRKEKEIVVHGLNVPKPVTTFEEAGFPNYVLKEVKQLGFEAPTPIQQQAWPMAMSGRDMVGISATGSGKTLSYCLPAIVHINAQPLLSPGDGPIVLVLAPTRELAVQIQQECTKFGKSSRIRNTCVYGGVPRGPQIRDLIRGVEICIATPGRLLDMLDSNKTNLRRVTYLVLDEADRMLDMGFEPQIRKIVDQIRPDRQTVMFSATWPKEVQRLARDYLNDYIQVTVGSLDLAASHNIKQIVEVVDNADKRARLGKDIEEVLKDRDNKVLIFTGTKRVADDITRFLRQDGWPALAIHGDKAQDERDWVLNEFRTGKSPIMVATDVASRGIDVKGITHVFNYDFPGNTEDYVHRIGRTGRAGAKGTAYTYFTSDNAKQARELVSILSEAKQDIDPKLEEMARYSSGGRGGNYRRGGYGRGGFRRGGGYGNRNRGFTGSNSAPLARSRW

[4] = target: T1, Ded1 WT; test: EMSA; K+, 2 mM Mg2+; EMSA: 0.4 nM 32P-oligo (0.2 nM in Fig S4), 50 mM Tris (pH not stated), 50 mM KCl (DNA) or NaCl (RNA), 2 mM MgCl2, 2 mM DTT, 0.25 mg/ml BSA, 10 min at 30 C; settings: protein: recombinant; tags: C-terminal poly-His; label: 5'-32P; parallel G4, 5' A10 overhang
[5] = target: T3, Dbp2 WT; test: as above; settings: protein: recombinant; tags: C-terminal poly-His; label: 5'-32P; parallel G4, 5' A10 overhang
[6] = target: T1, Ded1 WT; test: EMSA; 10 nM protein, Na+; EMSA: 0.4 nM 32P-oligo (0.2 nM in Fig S4), 50 mM Tris (pH not stated), 50 mM KCl (DNA) or NaCl (RNA), 2 mM MgCl2, 2 mM DTT, 0.25 mg/ml BSA, 10 min at 30 C; settings: protein: recombinant, tags: C-terminal poly-His, label: 5'-32P
[7] = target: T2, Oga1 WT; test: as above; settings: protein: recombinant, tags: C-terminal poly-His, label: 5'-32P
[8] = target: T3, Dbp2 WT; test: as above; settings: protein: recombinant, tags: C-terminal poly-His, label: 5'-32P
[9] = parallel G4, 5' U5 and 3' U5 overhangs

AAAAAAAAAAGGTGCGAGGTGAGTGTGGAGTGAGG (ssDNA) [10A-rDNA scr]
binding result [1]: no binding
binding result [2]: no binding
binding result [3]: no binding

AAAAAAAAAAGGGGAAGGGTGGGGCATGTTATGGG (structured_DNA) [10A-rDNA G4]
Kd [4]: 6.59 ± 0.1 nM
Kd [5]: 3.84 ± 1.06 nM

AAAAAAAAAAGGGGAAGGGUGGGGCAUGUUAUGGG (structured_RNA) [5'-RNA-G4 (10A-G4 RNA)]
binding result [6]: binds
binding result [7]: binds
binding result [8]: binds

UUUUUGGGGAAGGGUGGGGCAUGUUAUGGGUUUUU (structured_RNA) [5'-RNA-G4-3' (5U-G4-5U RNA)]
binding result [6, 9]: binds
binding result [7, 9]: binds
binding result [8, 9]: binds
